Consider two substances from patent US6967029.

In assay [1] the target is endogenous c-kit of COS-1 cells (cells transfected with V19.8 alone). The experiment in a line: 1.6 nM human 125I-SCF^1-164 on membrane fractions of COS-1 cells transfected with V19.8 alone.
The target of assay [2] is human recombinant c-kit ligand binding plus transmembrane domains (hckit-LT1) expressed in COS-1 cells (human) (UniProt P10721). The experiment in a line: 1.6 nM human 125I-SCF^1-164 on membrane fractions of COS-1 cells transfected with V19.8:hckit-LT1.
The target is the same in assay [3]. Briefly: 1.6 nM human 125I-SCF^1-164 + 320 nM unlabelled human SCF^1-164, membranes of COS-1 cells transfected with V19.8:hckit-LT1.
Assay [4] concerns the target endogenous c-kit of COS-1 cells (cells transfected with V19.8 alone). Briefly: 1.6 nM human 125I-SCF^1-164 + 320 nM unlabelled human SCF^1-164, membranes of COS-1 cells transfected with V19.8 alone.
For assay [5], the target named is human recombinant c-kit ligand binding plus transmembrane domains (hckit-LT1) expressed in COS-1 cells (human) (UniProt P10721). The experiment in a line: 1.6 nM rat 125I-SCF^1-164 + 320 nM unlabelled rat SCF^1-164, membranes of COS-1 cells transfected with V19.8:hckit-LT1.
For assay [6], the target named is endogenous c-kit of COS-1 cells (cells transfected with V19.8 alone). The experiment in a line: 1.6 nM rat 125I-SCF^1-164 + 320 nM unlabelled rat SCF^1-164, membranes of COS-1 cells transfected with V19.8 alone.
In assay [7] the target is human recombinant c-kit ligand binding plus transmembrane domains (hckit-LT1) expressed in COS-1 cells (human) (UniProt P10721). Briefly: 1.6 nM rat 125I-SCF^1-164 on membrane fractions of COS-1 cells transfected with V19.8:hckit-LT1.
Assay [8] concerns the target endogenous c-kit of COS-1 cells (cells transfected with V19.8 alone). Briefly: 1.6 nM rat 125I-SCF^1-164 on membrane fractions of COS-1 cells transfected with V19.8 alone.

As for “human SCF^1-164 (radioiodinated; Examples 13 and 15) (from UniProt P21583 26-189) (ligand)”, the CPM Bound worked out at 2160 cpm in assay [1], 59400 cpm in assay [2], 2380 cpm in assay [3] and 2150 cpm in assay [4].

As to “rat SCF^1-164 (radioiodinated; Example 15) (from UniProt P21581 26-189) (ligand)”, the CPM Bound was 1100 cpm in assay [5], 550 cpm in assay [6], 70000 cpm in assay [7] and 1100 cpm in assay [8].
